Source: patent US7667100B2, “Nucleic acid compositions conferring herbicide resistance” (Dow AgroSciences LLC, priority 2002, dated 2010)

Assays:
[1] = tested on: Nicotiana benthamiana; assay: Evaluation of auxin tolerance in greenhouse plants inoculated with clone transcript and sprayed with herbicide; assay type: in vivo
Description: All primary hit sequences were evaluated for tolerance in larger plants, maintained under greenhouse conditions as described below.
Plant Growth and Maintenance. Nb seeds were sown in 6.5 cm pots filled with Redi-earth medium (The Scotts Company, Marysville, Ohio) pre-wetted by injection of Hoagland's fertilizer solution [all from the Scotts Company: 147 kg Peters Excel 15-15-15 Cal-Mag, 68 kg Peters Excel 15-0-0 Cal-Lite (15% Ca), and 45 kg Peters Excel 10-0-0 MagNitrate (10% Mg) in hot tap water to 596 L total volume] into irrigation water at a ratio of 200:1, using an injection system (H. E. Anderson, Muskogee Okla,). Seededpots were placed in the greenhouse for 1 day, transferred to a 27° C. germination chamber (Carolina Greenhouses, Kinston, N.C.) for 2 days, and then returned to the greenhouse. Shade curtains (33% transmittance) were used in the greenhouse to reduce solar intensity. To ensure 16 hour day length and supplement solar radiation on overcast days, artificial lighting consisting of a 1:1 mixture of metal halide and high pressure Sylvania sodium lamps was used, delivering approximately 220 μmol/m^2/s. Evaporative cooling and steam heat were used to maintain a daytime set point of 27° C. and a nighttime temperature of 22° C. At approximately 7 days post sowing (dps), seedlings were thinned to one seedling per pot and at 17 to 21 dps, the pots were spaced farther apart to accommodate plant growth. Plants were watered with Hoagland's solution as required. Following inoculation, waste irrigation water was collected and treated with 0.5% sodium hypochlorite for 10 minutes to neutralize any viral contamination before discharging into the municipal sewer.
Plant Inoculation. For each clone, 50 test plants as well as 10 GFP and bar (Thompson et al., EMBO J. 6:2519 [19870]) negative control plants were inoculated as follows: 2.0 mL of inoculum per clone were prepared by combining equal volumes of NCAP transcript and FES buffer [0.1 M glycine, 0.06 M K2HPO4, 1% sodium pyrophosphate, 1% diatomaceous earth (Sigma Chemical Company, St. Louis, Mo.), and either 1% silicon carbide (Aldrich Chemical Company, Milwaukee, Wis.), or 1% Bentonite (Sigma Chemical Company, St. Louis, Mo.)]. The inoculum was applied to each plant at 17 days post sowing by pipetting onto the upper surface of leaves 3 and 4 (˜20 μL per leaf). The inoculum was then spread across each leaf surface using a 3″ cotton tipped applicator (Calapro Swab, Fisher Scientific, Pittsburgh, Pa.) and a gloved finger to support the leaf. Following inoculation the plants were misted with deionized water.
Infection Scoring. At 8 days post inoculation (dpi), the plants were visually examined and a numerical score was assigned to each plant to indicate the extent of viral infection symptoms: 0=no infection, 1=possible infection, 2=infection symptoms limited to leaves <50-75% fully expanded, 3=typical systemic infection, 4=atypically severe infection, often accompanied by moderate to severe wilting and/or necrosis. Plants receiving an infection rating of 0, 1, or 4 were discarded.
Herbicide spraying. At 9 dpi, the well infected plants (infection score of 3, sometimes 2) were divided into 3 treatment groups. Group 1, to be sprayed with solvent only, contained 4 plants per test clone (2 plants per negative control) and Groups 2 and 3, to be treated with 13 or 40 g ae/ha, respectively, each consisted of 12 test plants per clone and 2 plants per negative control. […]

[2] = tested on: Nicotiana benthamiana; assay: Cross-resistance testing against six auxin compounds (greenhouse); assay type: in vivo
Text: Six compounds, representing five classes of auxin chemistry, were selected for testing the extent of auxinic tolerance of five hit sequences (129965 (SEQ ID NO:10), 130213 (SEQ ID NO: 14), 130294 (SEQ ID NO:360), 130994 (SEQ ID NO:361), and 129870 (SEQ ID NO:359)). The compounds included the following: • 1) quinclorac (BASF Corp., Research Triangle, N.C.) • 2) (2,4-dichlorophenoxy) acetic acid (Dow AgroSciences, Indianapolis, Ind.) • 3) dicamba (Monsanto, St. Louis, Mo.) • 4) benazolin (AgrEvo USA Company, Wilmington, Del.) • 5) picloram (Dow AgroSciences, Indianapolis, Ind.) • 6) 4-amino-3,6-dichloropyridine-2-carboxylic acid (Dow AgroSciences, Indianapolis, Ind.) Compound #6 served as a positive control, as these five sequences were identified for their herbicide tolerant function using this auxin (see Example 9). Compound #1 represents the quinoline carboxylic acid chemical family, #2 is in the phenoxy carboxylic acid class, #3 is benzoic acid chemistry, #4 is unique to any currently defined class, and #5 is in the same family as the positive control, pyridine carboxylic acids.
The protocol was essentially the same as that described in Example 9 for greenhouse evaluations. However, an individual experiment consisted of 200 test plants plus 35 GFP and 35 bar negative control plants inoculated per clone. […] Two doses per auxin were tested, with as many as 12 well-infected test plants and 2 of each of the negative controls per dose.
The six auxin solutions were prepared by dissolving solid compound in General Purpose Solvent (GPS: 97%DMSO: 3% acetone) to achieve the following spray rates (g ae/ha) when using the spray applicator and parameters outlined in Example 9: Compound #1) 200; 2) 42; 3) 64; 4) 200; 5) 10; 6) 10. From each of these solutions, a portion was diluted with an equal volume of GPS, resulting in 1× (“high dose”) and ½× (“low dose”) concentrations for spraying. Before spray application, each auxin solution was mixed with an equal volume of diluent containing surfactants for effective penetration. The diluent was prepared as follows: 420 mL GPS, 460 mL DI water, 120 mL isopropyl alcohol, 10.167 mL Agri-Dex (Helena Chemical Co., Memphis, Tenn.), and 0.167 mL Triton X-155 (Sigma Chemical Co., St. Louis, Mo.). In addition to the 200 and 100 g ae/ha rates tested for Compound #4 (benazolin), a concentration of 250 g ae/ha was also formulated as described above and tested.
Plants were sprayed and evaluated as described in Example 9. FIG. 7 summarizes the sequences tested and the highest dose of the compounds against which tolerance was observed. […] Results are reported in FIG. 7 for each of the trials with each construct.
The positive control (Compound #6) was formulated differently in this set of evaluations from that described in Example 9, for consistency in the solvent/surfactant background from which to compare the activity of the individual sequences against each auxin. Thus, the spray rate used for evaluation was lower than previous experiments, 5 vs. 13 g ae/ha. The need to lower the dose with this formulation to prevent total chlorosis and/or necrosis was likely due to the addition of DMSO, Agri-Dex, and Triton X-155 which were not used in Example 9.

B1: 130213: Poppy cDNA clone; auxin tolerance hit sequence (nucleic acid)
DNA: TTAATTAAGTCGACGAATTCATATGAAGAAATGGTTGAATTTATGGAAAAAGTAACAACAAATGTTGAATCAGAGGAACTTTCAGTTGAAGAGAGAAATTTATTGTCAGTTGCTTACAAAAATGTGATTGGTGCACGCAGAGCATCATGGAGAATTATTTCATCAATTGAACAGAAAGAAGAAAGCCGTGGTAACGAAGAGAATGTATTGACCATTCGTGATTATAGATCTAAGATTGAAACTGAACTTTCAGGCATCTGTGATGGGATTTTGAAGTTGCTTGATACTAGATTGATTCCATCTGCATCTTCTGGTGATTCTAAAGTGTTTTATTTGAAAATGAAAGGTGATTATCATCGTTATTTGGCTGAGTTTAAAACTGGTACCGAAAGGAAAGAAGCTGCTGAAAGTACCCTTTCTGCTTATAAATCTGCTCAGGATATCGCAACTGCTGAACTTGCACCCACTCACCCAATCAGGCTGGGACTTGCTCTTAACTTTCTCCGTCTTTTACTACGAGATCTTGAATTCTCCTGCCGTGCTTGTAATCTCGCCAAACAGGCATTTGATGAGGCTATCGCGGAGCTGGATACCCTTGGTGAAGAATCATACAAAGACAGCACTCTAATCATGCAGCTCCTTCGTGACAATCTTACTCTGTGGACCTCCGACATGCAGGATGATGGTGCAGATGAAATTAAAGAAGCATCCAAGCCTGAAGATGAACATTAATGATAGTTTGTCTGCCACATTTAGGATCTTACCTCCTCTCAGTTTGTTTTATTAAAAGGAGAAGGTGCTTTCTTGGTACACAACTCCTCCAAGTCTACTATTAATTATTAAGGAGTTTAGGGTGGGTACTGTTAGTTTGTCATTCTTCTTATCCTTTGTGCTCGTCTTTTCCTATCTTAATTCTTCTCTTAAAAGAGTTTGAAGTTATATGTTTATCTGAATCTGTGTGGGAACTCCGTTTTATCTAAATTATCTTTTAAGATGACGATAAAAAAAAAAAAAAAAAAA
modifications: Poppy
plants demonstrating auxin tolerance ([1]; 14 days after treatment (dat), 130213 homolog trial, tolerance = 25% injury or less after 13 or 40 g ae/ha 4-amino-3,6-dichloropyridine-2-carboxylic acid): 17%
reproducibility of auxin tolerance from Trial #1 to Trial #2 ([1]; greenhouse, 30% or more of test population tolerant by 14 dat): reproducible auxin tolerance
tolerance to picloram (Compound #5) ([2]; 10 g ae/ha and 1/2x): additional tolerance to picloram and quinclorac when the 35% injury tolerance criterion was used
tolerance to positive control 4-amino-3,6-dichloropyridine-2-carboxylic acid (Compound #6) ([2]; 10 g ae/ha and 1/2x (5 g ae/ha)): tolerance consistently occurred at the lower threshold (25% injury or less)
tolerance to dicamba (Compound #3) ([2]; 64 g ae/ha and 1/2x): strongly effective
tolerance to quinclorac (Compound #1) ([2]; 200 g ae/ha and 1/2x): additional tolerance to picloram and quinclorac when the 35% injury tolerance criterion was used
extent of cross-resistance to the six auxin compounds ([2]; two trials, two doses per auxin, thresholds 25% or 35% injury or less): tolerance was observed against four compounds
